{
  "source": "patent US10428327B2",
  "about": "“Compositions and methods for enhancing homologous recombination” (LIFE TECHNOLOGIES CORPORATION, priority 2016, dated 2019)",
  "molecules": {"B1": {"name": "PS80: phosphorothioate 80-mer ssDNA, BFP point mutation, SEQ ID 49 (nucleic acid)", "DNA": "{P}-dG*dC*dTdGdCdCdCdGdTdGdCdCdCdTdGdGdCdCdCdAdCdCdCdTdCdGdTdGdAdCdCdAdCdCdCdTdGdAdCdCdTdAdCdGdGdCdGdTdGdCdAdGdTdGdCdTdTdCdAdGdCdCdGdCdTdAdCdCdCdCdGdAdCdCdAdCdAdT*dG*dA"}, "B2": {"name": "blunt: blunt-end dsDNA donor, FLAG tag plus EcoRI site, annealed SEQ ID 75 and 76 (nucleic acid)", "chain 1": "dG*dA*dCdTdAdCdAdAdAdGdAdCdGdAdTdGdAdCdGdAdCdAdAdGdAdAdTdTdC*dT*dT", "chain 2": "dA*dA*dGdAdAdTdTdCdTdTdGdTdCdGdTdCdAdTdCdGdTdCdTdTdTdGdTdAdG*dT*dC", "modifications": "annealed double-stranded DNA donor, further chemistry not fully specified"}, "B3": {"name": "6-5′: dsDNA donor with 6 nucleotide 5′ overhangs, annealed SEQ ID 77 and 78 (nucleic acid)", "chain 1": "dC*dT*dGdAdCdCdGdAdCdTdAdCdAdAdAdGdAdCdGdAdTdGdAdCdGdAdCdAdAdGdAdAdTdTdC*dT*dT", "chain 2": "dC*dG*dCdCdGdTdAdAdGdAdAdTdTdCdTdTdGdTdCdGdTdCdAdTdCdGdTdCdTdTdTdGdTdAdG*dT*dC", "modifications": "Two annealed DNA oligonucleotides with 5' overhangs, further chemistry not fully specified"}, "B4": {"name": "6-3′: dsDNA donor with 6 nucleotide 3′ overhangs, annealed SEQ ID 79 and 80 (nucleic acid)", "chain 1": "GACTACAAAGACGATGACGACAAGAATTCTTACGGCG", "chain 2": "AAGAATTCTTGTCGTCATCGTCTTTGTAGTCGGTCAG", "modifications": "chemistry not fully specified"}, "B5": {"name": "15-5′: dsDNA donor with 15 nucleotide 5′ overhangs, annealed SEQ ID 81 and 82 (nucleic acid)", "chain 1": "dG*dT*dGdAdCdCdAdCdCdCdTdGdAdCdCdGdAdCdTdAdCdAdAdAdGdAdCdGdAdTdGdAdCdGdAdCdAdAdGdAdAdTdTdC*dT*dT", "chain 2": "dG*dC*dAdCdTdGdCdAdCdGdCdCdGdTdAdAdGdAdAdTdTdCdTdTdGdTdCdGdTdCdAdTdCdGdTdCdTdTdTdGdTdAdG*dT*dC", "modifications": "Two annealed DNA oligonucleotides with 5' overhangs, further chemistry not fully specified"}},
  "format_in_all_cases": "cell-based",
  "key": {"eBFP genomic locus": {"test_system": "eBFP genomic locus", "experiment": "Sequencing verification of eBFP locus, 1 nt substitution (96 clones)", "details": "sequencing of 96 clones; for Relative percentage HDR / Relative percentage NHEJ / Relative percentage wt: 1 nt substitution", "procedure": "FIG. 8. Effects of oligonucleotide length and modification on HDR. (A) PAM ssDNA (6 nt insertion). […] Various length of PAM ssDNA oligonucleotide was normalized to either equal mass or equal molarity. Samples in the absence of donor (+gRNA) or gRNA (−gRNA) served as controls. The percentages of GFP-positive cells were determined by flow cytometry at 48 hours post transfection. (B) PAM ssDNA (1 nt substitution). […] The percentages of GFP-positive cells were determined by flow cytometry at 48 hours post transfection. (C) Verification by sequencing. The eBFP genomic locus was PCR-amplified, followed by cloning and Sanger sequencing of 96 samples. The relative percentage of wild type (wt), NHEJ, and HDR was plotted. (D) Examples of mutations. Examples of edited clones (not representing the actual percentages of NHEJ and HDR). FIG. 8 discloses SEQ ID NOs: 4-14, respectively, from top to bottom.\n(§1) To create homologous recombination (HR) assays, a series of gRNAs flanking the insertion site within the EmGFP gene were designed and synthesized (Table 4). Each individual gRNA was combined with GENEART™ […]™ Cas9 Nuclease to form the Cas9 protein/gRNA ribonucleoprotein complexes (Cas9 RNPs). The Cas9 RNPs were then used to transfect cells via NEON® electroporation. The genomic cleavage efficiency was then evaluated using the GENEART® Genomic Cleavage Detection kit at 48 hours post transfection. The gRNAs with highest editing efficiencies and also in close proximity to the insertion site were selected for the subsequent HR assays. For donor design of a single-stranded oligonucleotide, typically the mutation site was positioned at the center flanked by 30 to 50 nucleotides on each side. For asymmetric donor design, 30 nucleotides were placed on either the left or right arm and then 50 or 67 nucleotides on the right or left arm respectively, in both PAM and non-PAM strands. For design of a dsDNA oligonucleotide with single-stranded overhangs, the insertion element was overlapped in the center flanked by various lengths of ssDNA oligonucleotide on each side. By annealing two single-stranded oligonucleotides at 95° C. for 3 minutes, dsDNA donor molecules with either a 5′ protrusion or a 3′ protrusion were generated. To measure homologous recombination efficiency, the donor DNA was either co-transfected with Cas9 RNPs or delivered sequentially into cells via electroporation. At 48 hours post transfection, the gain of EmGFP function in reporter cell lines was determined by flow cytometric analysis with an Attune® NxT Acoustic Focusing Cytometer (Thermo Fisher Scientific). Alternatively, the genomic loci were PCR-amplified using the corresponding primers and then subjected to GENEART® Genomic Cleavage Detection assay or restriction digestion. The resulting PCR products were also subjected to TOPO cloning. Typically, 96 colonies were randomly picked for sequencing. The sequencing data were analyzed using VECTOR NTI ADVANCE® 11.5 software (Thermo Fisher Scientific).\nIt has been reported that relatively short single-stranded oligonucleotides containing 25-61 bases homologous to the target sequence were capable of correcting a single point mutation (Igoucheva, O., Alexeev, V., Yoon, K., Targeted gene correction by small single-stranded oligonucleotides in mammalian cells, Gene Ther. 8(5):391-399 (2001)). […]"}, "[1]": {"test_system": "HEK293 cells stably expressing eBFP", "experiment": "HDR assay, conversion of eBFP to GFP by flow cytometry", "details": "oligonucleotide length and modification, sequential delivery, 1 nt substitution, 48 hours", "from_the_text": "To generate a HEK293FT stable cell line expressing eBFP, an eBFP ORF was synthesized by GENEART® custom DNA synthesis (Thermo Fisher Scientific) and then cloned into pDONAR221 vector. Using GATEWAY® recombination technology (Thermo Fisher Scientific), the eBFP ORF was transferred to pLenti6.2-DEST Gateway Vector and then verified by sequencing. Lentivirus was generated using VIRAPOWER® kit as described in the manual. To generate stable cell line, HEK293FT cells were transduced with 0.1 MOI of Lentivirus expressing eBFP. Three days post transduction cells were selected on 5 μg/mL Blasticidine antibiotics for 2 weeks. Cells expressing eBFP were then collected and diluted to […] in complete medium and plated into 96 well plates for single cell clone. After 2 weeks clones were isolated and verified for eBFP expression by flow cytometer. In a reporter assay using a stable eBFP-expressing HEK293 cell line, the substitution of C to T in eBFP gene converts His67 to Tyr67, generating a GFP variant (Table 5).\nas §1\nFor each homologous recombination assay, 1.5 μg of Cas9 protein and 360 ng of gRNA were added to Resuspension Buffer R to a final volume of 7 μl, but limiting the total volume of Cas9 protein plus gRNA to less than 1 μl. The gRNA could be diluted in Buffer R if the concentration was too high. Upon mixing, the sample was incubated at room temperature for 5 to 10 minutes to form Cas9 RNPs. Meanwhile, […]™ HEK293 cells expressing either eBFP or disrupted EmGFP were detached from culture flask with TRYPLE™ Express Enzyme and then counted. Aliquots of 1×10^6 cells were washed once with DPBS without Ca^2+ and Mg^2+ and the cell pellets were resuspended in 50 μl of Resuspension Buffer R. A 5 μl aliquot of cell suspension was mixed with 7 μl of Cas9 RNPs. […] The electroporated cells were transferred to 300 μl of […]. […]"}, "[2]": {"test_system": "eBFP locus in HEK293 cells expressing eBFP", "experiment": "Genomic cleavage and detection assay at eBFP locus after Cas9 RNP and FLAG/EcoRI donor", "details": "sequential delivery, 48 hours post transfection", "from_the_text": "(§2) FIG. 11. Insertion of a FLAG tag along with an EcoRI site using dsDNA donor with single-stranded overhangs. (A) Various donor DNA molecules containing a 30-base FLAG tag along with an EcoRI site were designed and synthesized, including single-stranded DNA donor (ssDNA), blunt-end dsDNA donor (blunt), dsDNA donor with 5′ overhang (5′), dsDNA donor with 3′ overhang (3′). The length of overhangs varied from 6 nucleotides (6), 15 nucleotides (15) to 30 nucleotides (30). The 3′ and 5′ ends of the oligonucleotides harbored two consecutive phosphorothioate-modified bases (Table 4). The short dsDNA donors with and without overhangs were prepared by annealing two short DNA oligonucleotides. […] At 48 hours post transfection, the eBFP locus was PCR-amplified. The resulting PCR fragments were analyzed by the genomic cleavage and detection assays to determine the percentage of Indel or subjected to restriction digestion with EcoRI to determine the percentage of digestion. (B) Length of 3′ overhang. […] Alternatively, a dsDNA donor with 30-base 3′ overhang but without phosphorothioate modification (30-3′n) was used. The percentage of digestion with EcoRI was determined at 48 hours post transfection. (C) Dose effect. […] The eBFP loci were PCR-amplified. The resulting PCR fragments were analyzed by EcoRI digest. (D) Sequencing verification. The PCR fragments were cloned into E. coli and 192 clones were randomly picked for sequencing. The relative percentage of wild type (wt), NHEJ, and HDR clones derived from either ssDNA donor (ssDNA) or dsDNA with 3′ overhangs (3′ overhang) was plotted. The white rectangles represented the population of clones that contained the insert but with a point mutation. Examples of edited clones were shown in (E) (not representing the actual percentages of NHEJ and HDR). The underlined sequences represented the FLAG tag along with an RI site. FIG. 11 discloses SEQ ID NOs: 15-24, respectively, from top to bottom.\nThe genomic cleavage efficiency was measured by GENEART® Genomic Cleavage Detection kit according to manufacturer's instructions. The primer sequences for PCR amplification of each genomic locus are described in Table 4. Cells were analyzed at 48 to 72 hours post transfection. The cleavage efficiencies were calculated based on the relative agarose gel band intensity, which were quantified using an […]® gel documentation system running […]®, Version 3.4.0.0. ProteinSimple (San Jose, Calif., USA).\nTo extend this concept, we hypothesized that a dsDNA donor harboring single-stranded overhangs would facilitate HDR to higher levels than with blunt ends. To test this hypothesis, we designed and generated a series of donor molecules with either blunt end, 5′ end protrusion or 3′ end protrusion by annealing two small single-stranded oligonucleotides. A single-stranded DNA donor was used as a control. The 5′ and 3′ ends of oligonucleotides were protected with two consecutive phosphorothioate-modified bases (Table 3). For proof of concept, we inserted a 30 nucleotide FLAG epitope tag along with an EcoRI site into the BFP gene stably expressed in HEK293 cells. The gRNA was designed to target the top DNA strand. The length of single-stranded overhangs varied from 6 nucleotides to 30 nucleotides. The oligonucleotides were denatured and re-annealed prior to transfection forming the structures described in FIG. 11A. […] Co-delivery of Cas9 RNPs and donor DNA gave lower HDR efficiencies. At 48 hours post transfection, the genomic locus was PCR-amplified and the editing efficiencies were determined using a GCD assay. […] When the PCR fragments were subjected to restriction digestion with EcoRI to identify properly inserted constructs, only the donor DNA molecules containing 30-base single-stranded overhangs at the 3′ ends produced the expected digested fragments (30-3′ in FIG. 11, panel A). […]"}, "[3]": {"test_system": "eBFP locus in HEK293 cells expressing eBFP", "experiment": "EcoRI restriction digestion of PCR-amplified eBFP locus (FLAG tag/EcoRI insertion)", "details": "FIG. 11A, donor configurations, sequential delivery, 48 hours", "from_the_text": "as §2\nas §1, with “The sequencing data were analyzed using VECTOR NTI ADVANCE® 11.5 software (Thermo Fisher Scientific).” left out"}, "[4]": {"details": "listed as 80-base modified oligonucleotide"}},
  "note": "Oligonucleotides are written 5' to 3', each unit as a sugar letter and its base; * is a phosphorothioate linkage, no mark a phosphodiester; rarer units and linkages stand in square brackets, end groups in braces. Plain capitals give the bases only. d = 2'-deoxy (DNA); {P} = phosphate",
  "data": [
    {"molecule": "B1", "values": [
      {"measurement": "overall genome modification efficiency", "setting": "eBFP genomic locus", "value": "~94", "unit": "%"},
      {"measurement": "Relative percentage HDR", "setting": "eBFP genomic locus", "value": 40.4, "unit": "%"},
      {"measurement": "Relative percentage NHEJ", "setting": "eBFP genomic locus", "value": 53.8, "unit": "%"},
      {"measurement": "Relative percentage wt", "setting": "eBFP genomic locus", "value": 5.8, "unit": "%"},
      {"measurement": "Relative percentage HDR", "setting": "eBFP genomic locus; [4]", "value": "Approximately 40%"},
      {"measurement": "Relative percentage NHEJ", "setting": "eBFP genomic locus; [4]", "value": "approximately 54%"},
      {"measurement": "Relative percentage wt", "setting": "eBFP genomic locus; [4]", "value": "approximately 6%"},
      {"measurement": "Avg (% GFP+ cells)", "setting": "[1]", "value": 44.3, "unit": "%"},
      {"measurement": "Avg (% GFP+ cells)", "setting": "[1]; [4]", "value": "approximately 45%"}
    ]},
    {"molecule": "B2", "values": [
      {"measurement": "Avg (% Indels)", "setting": "[2]", "value": 68.50, "unit": "%"},
      {"measurement": "Avg (% digestion)", "setting": "[3]", "value": 0.00, "unit": "%"}
    ]},
    {"molecule": "B3", "values": [
      {"measurement": "Avg (% Indels)", "setting": "[2]", "value": 56.50, "unit": "%"},
      {"measurement": "Avg (% digestion)", "setting": "[3]", "value": 0.00, "unit": "%"}
    ]},
    {"molecule": "B4", "values": [
      {"measurement": "Avg (% Indels)", "setting": "[2]", "value": 78.50, "unit": "%"},
      {"measurement": "Avg (% digestion)", "setting": "[3]", "value": 0.00, "unit": "%"}
    ]},
    {"molecule": "B5", "values": [
      {"measurement": "Avg (% Indels)", "setting": "[2]", "value": 69.50, "unit": "%"},
      {"measurement": "Avg (% digestion)", "setting": "[3]", "value": 0.00, "unit": "%"}
    ]}
  ]
}
